Among the data in PMC11582362 (2023) are response values, retold here.

B1: full length ADAR1 p110, wild type (FLAG-tagged and HA-tagged copies) [human] / itself (parent complex)
chain: MAEIKEKICDYLFNVSDSSALNLAKNIGLTKARDINAVLIDMERQGDVYRQGTTPPIWHLTDKKRERMQIKRNTNSVPETAPAAIPETKRNAEFLTCNIPTSNASNNMVTTEKVENGQEPVIKLENRQEARPEPARLKPPVHYNGPSKAGYVDFENGQWATDDIPDDLNSIRAAPGEFRAIMEMPSFYSHGLPRCSPYKKLTECQLKNPISGLLEYAQFASQTCEFNMIEQSGPPHEPRFKFQVVINGREFPPAEAGSKKVAKQDAAMKAMTILLEEAKAKDSGKSEESSHYSTEKESEKTAESQTPTPSATSFFSGKSPVTTLLECMHKLGNSCEFRLLSKEGPAHEPKFQYCVAVGAQTFPSVSAPSKKVAKQMAAEEAMKALHGEATNSMASDNQPEGMISESLDNLESMMPNKVRKIGELVRYLNTNPVGGLLEYARSHGFAAEFKLVDQSGPPHEPKFVYQAKVGGRWFPAVCAHSKKQGKQEAADAALRVLIGENEKAERMGFTEVTPVTGASLRRTMLLLSRSPEAQPKTLPLTGSTFHDQIAMLSHRCFNTLTNSFQPSLLGRKILAAIIMKKDSEDMGVVVSLGTGNRCVKGDSLSLKGETVNDCHAEIISRRGFIRFLYSELMKYNSQTAKDSIFEPAKGGEKLQIKKTVSFHLYISTAPCGDGALFDKSCSDRAMESTESRHYPVFENPKQGKLRTKVENGEGTIPVESSDIVPTWDGIRLGERLRTMSCSDKILRWNVLGLQGALLTHFLQPIYLKSVTLGYLFSQGHLTRAICCRVTRDGSAFEDGLRHPFIVNHPKVGRVSIYDSKRQSGKTKETSVNWCLADGYDLEILDGTRGTVDGPRNELSRVSKKNIFLLFKKLCSFRYRRDLLRLSYGEAKKAARDYETAKNYFKKGLKDMGYGNWISKPQEEKNFYLCPV

Variants of B1 are the subject of this assay. Put plainly: co-immunoprecipitation (anti-FLAG IP, anti-HA western blot, bands quantified with ImageJ); HEK293T cells; in the presence of RNases; n = 3; parent: 70; read off a plot. For orientation: In western blotting, separated proteins are transferred to a membrane and probed.
On to chain 1 V452A, chain 1 D453Q, chain 1 W473V, chain 1 C478S, for which the response is about 10%.
